± gives the standard deviation of the averaged measurements.
Tested on: ATP
Test: switch fluorescence ratio, 500 uM ATP over buffer (Cy3 cluster intensity, sum of 5 cycles each) (fold (ratio)); higher = stronger signal-on switching upon ATP binding; sequences stand for … in TCGTCGGCAGCGTCAGATGTGTATAAGAGACAGTTTTTTTTTTTTTTTTTTTTTTTTT…TC
Settings: aptamer strand: ATP DNA aptamer (quencher-CACCTGGGGGAGTATTGCGGAGGAAGG + anchor), 100 nM annealed; ATP concentration: 500 uM
How it was run: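 Exposure to 500 uM ATP lasted 15 min at 22 °C before imaging, and a selection-buffer image was taken beforehand, for Cy3-labelled switching-strand clusters on a modified Illumina MiSeq flow-cell annealed to 100 nM quencher-labelled ATP aptamer. Five buffer/ATP cycles were run with NaOH stripping and re-annealing between them. The fluorescence ratio per cluster is summed target-cycle over summed buffer-cycle Cy3 intensity, averaged per switch-domain sequence. Clusters outside 100-1000 RFU were excluded.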

ATCGCAGGCG
switch fluorescence ratio: 1.035 ± 0.0068

GCTGGTAATG
switch fluorescence ratio: 1.01 ± 0.021

AATGGGTGAA
switch fluorescence ratio: 0.97511 ± 0.00091

GTCATTAACT
switch fluorescence ratio: 1.02 ± 0.027

GACATTTTTA
switch fluorescence ratio: 0.975 ± 0.022

AGACGATTGT
switch fluorescence ratio: 0.985 ± 0.018

TCTAACTTTT
switch fluorescence ratio: 1.01 ± 0.033

ATTGTTTGTC
switch fluorescence ratio: 0.996 ± 0.064

GCGTCTTTAC
switch fluorescence ratio: 1.13 ± 0.024

GGTTGCAGGG
switch fluorescence ratio: 1.01 ± 0.011

ACTATGAGTT
switch fluorescence ratio: 0.9975 ± 0.0073

GTAGGAGGTG
switch fluorescence ratio: 1.07 ± 0.019

TTTTATGGCT
switch fluorescence ratio: 0.982 ± 0.04

GGGGGTGGGC
switch fluorescence ratio: 1.03 ± 0.035

TCAGAAAGTG
switch fluorescence ratio: 1 ± 0.041

ATAATTTTAG
switch fluorescence ratio: 0.999 ± 0.031

TTAGCATTAG
switch fluorescence ratio: 1.23 ± 0.04

GCGGCTGG
switch fluorescence ratio: 0.963 ± 0.022

AAGGGATTGA
switch fluorescence ratio: 1.01 ± 0.011

TGGAAGGAAG
switch fluorescence ratio: 0.9998 ± 0.0073

TGTTACGGTG
switch fluorescence ratio: 1.002 ± 0.0031

TAAAATTTGT
switch fluorescence ratio: 1.01 ± 0.05

CTAGACCCGG
switch fluorescence ratio: 0.988 ± 0.027

AAAATAAATG
switch fluorescence ratio: 1.01 ± 0.017

GCAGCAGGGT
switch fluorescence ratio: 1.101 ± 0.0034

CAGCTGAGGC
switch fluorescence ratio: 0.976 ± 0.038

TGTTTATGGT
switch fluorescence ratio: 1.02 ± 0.017

AAATTAAAGG
switch fluorescence ratio: 1 ± 0.013

GGGCAAGGGC
switch fluorescence ratio: 1.038 ± 0.01

GGGTATAATA
switch fluorescence ratio: 1.01 ± 0.014

GGCAACTGGG
switch fluorescence ratio: 1.02 ± 0.05

CAGCAGAGGG
switch fluorescence ratio: 1.01 ± 0.01

ATAATGCAGG
switch fluorescence ratio: 1 ± 0.032

GCACCTATAT
switch fluorescence ratio: 1.04 ± 0.039

GAATCGGTAG
switch fluorescence ratio: 0.9783 ± 0.0013

TCGTGGTCTG
switch fluorescence ratio: 0.999 ± 0.036

ACCACAATGT
switch fluorescence ratio: 1.08 ± 0.055

ACAGGGGGTA
switch fluorescence ratio: 1.02 ± 0.024

GTGATGGGAC
switch fluorescence ratio: 1.02 ± 0.0077

TTTAGTTGTG
switch fluorescence ratio: 0.967 ± 0.014

ATGGCAGGTA
switch fluorescence ratio: 0.992 ± 0.033

ACTGATTTAT
switch fluorescence ratio: 1.01 ± 0.028

TTTGGATTAG
switch fluorescence ratio: 0.9746 ± 0.0037

GGGAAAATCA
switch fluorescence ratio: 0.999 ± 0.02

GCATGAGAGG
switch fluorescence ratio: 0.987 ± 0.021

CATATTCAAT
switch fluorescence ratio: 1 ± 0.015

TATATACTGT
switch fluorescence ratio: 1.02 ± 0.03

ATATTGGATT
switch fluorescence ratio: 0.994 ± 0.018

TTGGACGCAC
switch fluorescence ratio: 2.08 ± 0.12

AAACTGGAAA
switch fluorescence ratio: 0.99 ± 0.016

GAAGTCTGGG
switch fluorescence ratio: 0.9767 ± 0.0021

GGTGGTTATC
switch fluorescence ratio: 1.01 ± 0.021

GTGCTGGGCG
switch fluorescence ratio: 0.994 ± 0.028

ACTGATGGAC
switch fluorescence ratio: 1.06 ± 0.027

CACATTTGGA
switch fluorescence ratio: 0.985 ± 0.051

TCCCATAAGC
switch fluorescence ratio: 1.099 ± 0.0051

ATATATAGCC
switch fluorescence ratio: 1.01 ± 0.022

TGATTCTAGC
switch fluorescence ratio: 0.972 ± 0.011

TCGTGGGGTT
switch fluorescence ratio: 1.02 ± 0.012

TTTACGTGAC
switch fluorescence ratio: 1.22 ± 0.16

ATTGCTCTTT
switch fluorescence ratio: 1.0037 ± 0.00058

TTAGGGTCAG
switch fluorescence ratio: 0.997 ± 0.035

TACCATGAAT
switch fluorescence ratio: 1.01 ± 0.045

GGGTTAGAAG
switch fluorescence ratio: 0.9797 ± 0.008

TTTCTTTTTA
switch fluorescence ratio: 0.9791 ± 0.0032

TCGGTAGGGG
switch fluorescence ratio: 0.999 ± 0.025

TTTCGAGTTG
switch fluorescence ratio: 0.9809 ± 0.0029

TTTGCTGGTG
switch fluorescence ratio: 1.1 ± 0.026

TCGAGTGTGC
switch fluorescence ratio: 1.06 ± 0.021

GAGACTAGAT
switch fluorescence ratio: 1.01 ± 0.017

AAGTCGCGTT
switch fluorescence ratio: 0.991 ± 0.0024

TACGAGTTTT
switch fluorescence ratio: 0.996 ± 0.01

AGTGTCCTGG
switch fluorescence ratio: 0.986 ± 0.013

ACGTTAGGTC
switch fluorescence ratio: 1.04 ± 0.019

TAGGAGATGA
switch fluorescence ratio: 1 ± 0.042

ATTTTTCCCG
switch fluorescence ratio: 1.07 ± 0.059

GAACAGGGGG
switch fluorescence ratio: 1.01 ± 0.046

AAAGTCTCGT
switch fluorescence ratio: 0.972 ± 0.018

GATTTTTATC
switch fluorescence ratio: 1.023 ± 0.0031

GCGGTTTGAG
switch fluorescence ratio: 0.933 ± 0.012

AAAAAGTGCC
switch fluorescence ratio: 1.07 ± 0.11

AGGAGGGGTT
switch fluorescence ratio: 1.01 ± 0.037

GAACGCTGGA
switch fluorescence ratio: 1.04 ± 0.056

TTTTAAACAG
switch fluorescence ratio: 1.028 ± 0.0066

GGAGCCGGGC
switch fluorescence ratio: 1.01 ± 0.013

ACGTTCGGAG
switch fluorescence ratio: 1.05 ± 0.05

CTAAGGGAGG
switch fluorescence ratio: 0.992 ± 0.017

CGTGGGGAGT
switch fluorescence ratio: 1 ± 0.012

CGTGTCCTCG
switch fluorescence ratio: 1.04 ± 0.088

CGGCCAGGGG
switch fluorescence ratio: 1.5 ± 0.09

AGAGTCGATT
switch fluorescence ratio: 1.014 ± 0.0028

ATATTCTTGT
switch fluorescence ratio: 1.009 ± 0.0095

AGGTTGGTAA
switch fluorescence ratio: 0.969 ± 0.01

TGGAGTTACT
switch fluorescence ratio: 0.994 ± 0.061

CGGGGGGGTG
switch fluorescence ratio: 1.03 ± 0.096

AACTTTTATT
switch fluorescence ratio: 1.01 ± 0.015

GATTGAGACT
switch fluorescence ratio: 1.01 ± 0.026

TGGGAGGCGT
switch fluorescence ratio: 0.992 ± 0.02

TTAAGGGAAG
switch fluorescence ratio: 1.02 ± 0.036

CCCGGGGCTA
switch fluorescence ratio: 1.08 ± 0.036

ACTTTTGAAA
switch fluorescence ratio: 0.994 ± 0.014

GAGGTTTTTA
switch fluorescence ratio: 0.986 ± 0.027

ATAATTGGGG
switch fluorescence ratio: 0.98 ± 0.026

GATTAAAGGT
switch fluorescence ratio: 1.01 ± 0.025

GTGGGAGGGT
switch fluorescence ratio: 0.984 ± 0.041

GATGTGGTGT
switch fluorescence ratio: 0.984 ± 0.081

TGGGGTTGAG
switch fluorescence ratio: 0.984 ± 0.019

GAGGAAGTAT
switch fluorescence ratio: 0.978 ± 0.0024

CGCTACGATG
switch fluorescence ratio: 1.082 ± 0.0078

AGTGGTACCG
switch fluorescence ratio: 0.99 ± 0.024

TTTACATGCG
switch fluorescence ratio: 0.935 ± 0.031

GGGGATAGGG
switch fluorescence ratio: 0.985 ± 0.016

CGCGCAGAT
switch fluorescence ratio: 1.02 ± 0.025

GAACGGGGGT
switch fluorescence ratio: 1 ± 0.015

CTCAGCCAGT
switch fluorescence ratio: 1.29 ± 0.056

CGGGGGTTGT
switch fluorescence ratio: 0.963 ± 0.036

GTTGGTACGT
switch fluorescence ratio: 1.01 ± 0.03

AAGGTTTTCG
switch fluorescence ratio: 1.01 ± 0.026

ATCAAACTCG
switch fluorescence ratio: 0.979 ± 0.029

CACGCATTTT
switch fluorescence ratio: 1.12 ± 0.089

TGGATTAGAG
switch fluorescence ratio: 0.9672 ± 0.0022

TTGGTATATA
switch fluorescence ratio: 0.9879 ± 0.0069

AGATAATCGC
switch fluorescence ratio: 0.987 ± 0.03

ATATGTATGA
switch fluorescence ratio: 1.003 ± 0.0037

TTGTTATTGG
switch fluorescence ratio: 0.978 ± 0.038

GTTGGCGGGC
switch fluorescence ratio: 0.997 ± 0.036

TGCTACGGCG
switch fluorescence ratio: 1.02 ± 0.019

GCAAAAAATT
switch fluorescence ratio: 1.01 ± 0.025

AAATACCGTT
switch fluorescence ratio: 1.021 ± 0.0057

TGGGAAAGGT
switch fluorescence ratio: 0.994 ± 0.025

GGGGGGCTTA
switch fluorescence ratio: 0.999 ± 0.018

AAAGGGTGGG
switch fluorescence ratio: 1.01 ± 0.013

TTAGGGTTTC
switch fluorescence ratio: 0.978 ± 0.013

GAAAGTTTTG
switch fluorescence ratio: 1.01 ± 0.059

GCACGCAACT
switch fluorescence ratio: 1.32 ± 0.013

AGTGTTCGTC
switch fluorescence ratio: 1.05 ± 0.011

ATCGGAGTAT
switch fluorescence ratio: 0.996 ± 0.034

GAGAAATTAT
switch fluorescence ratio: 0.9772 ± 0.0067

ATTTCAGTCT
switch fluorescence ratio: 0.977 ± 0.051

GGTGTTAAGA
switch fluorescence ratio: 1.01 ± 0.0043

TTGTGGTTTG
switch fluorescence ratio: 0.992 ± 0.034

TCGCTCGCAT
switch fluorescence ratio: 3.68 ± 0.73

GTTTAAGGAG
switch fluorescence ratio: 1.02 ± 0.066

ACGCCGGCGA
switch fluorescence ratio: 0.9729 ± 0.002

TTCGGGGTGG
switch fluorescence ratio: 0.9976 ± 0.0066

TACGAGACGG
switch fluorescence ratio: 1.095 ± 0.0059

TGCCCGTACG
switch fluorescence ratio: 1 ± 0.033

TGGTGGGGCG
switch fluorescence ratio: 1.11 ± 0.051

AGATCGGATA
switch fluorescence ratio: 1.01 ± 0.024

TTTAGGGAGC
switch fluorescence ratio: 1.04 ± 0.029

GGTTTCTCCG
switch fluorescence ratio: 1.46 ± 0.017

ATCGCAGCTC
switch fluorescence ratio: 1.62 ± 0.017

GGCTCAATTT
switch fluorescence ratio: 0.967 ± 0.012

GCCGCAGGGG
switch fluorescence ratio: 2.61 ± 1.3

TCAAGGGGGC
switch fluorescence ratio: 0.9915 ± 0.0018

GGCCCGGGGC
switch fluorescence ratio: 0.995 ± 0.017

TTAGGACTTG
switch fluorescence ratio: 0.985 ± 0.015

From the supplement of paper PMC10126150
